Assay results reported in patent US20150203577A1 (Chugai, published 2015).

Columns and labels:
[1] = molecular target: T1, mouse FcγRII extracellular domain, C-terminal His tag (mouse, UniProt P08101 30-210); test: SPR (Biacore T200); KD of H237-mIgG1/MRAL-k0 / KD of variant
T1 construct: Whole entry named; also called mFcγRII; mFcgRII
T1 sequence: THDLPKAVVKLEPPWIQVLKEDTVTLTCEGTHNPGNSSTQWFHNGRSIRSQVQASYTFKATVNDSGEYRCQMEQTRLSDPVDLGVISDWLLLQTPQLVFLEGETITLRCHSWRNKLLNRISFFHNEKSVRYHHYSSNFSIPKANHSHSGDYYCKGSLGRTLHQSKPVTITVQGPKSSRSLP

[2] = molecular target: T2, mouse FcγRIII extracellular domain, C-terminal His tag (mouse, UniProt P08508 31-215); test: as above
T2 construct: Whole entry named; also called mFcγRIII; mFcgRIII
T2 chain: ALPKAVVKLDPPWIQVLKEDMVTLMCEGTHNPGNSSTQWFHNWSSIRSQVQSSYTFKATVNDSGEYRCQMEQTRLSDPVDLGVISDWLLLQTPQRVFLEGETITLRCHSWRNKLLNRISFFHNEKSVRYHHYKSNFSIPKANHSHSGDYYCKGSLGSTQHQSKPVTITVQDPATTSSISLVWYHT

B1: H237-MB603/MRAL-k0 (antibody, mouse IgG1, kappa)
heavy: QVQLQESGPGLVKPSETLSLTCAVSGHSISHDHAWSWVRQPPGEGLEWIGFISYSGITNYNPSLQGRVTISRDNSKNTLYLQMNSLRAEDTAVYYCARSLARTTAMDYWGEGTLVTVSSAKTTPPSVYPLAPGSAAQTNSMVTLGCLVKGYFPEPVTVTWNSGSLSSGVHTFPAVLQSDLYTLSSSVTVPSSTWPSETVTCNVAHPASSTKVDKKIVPRDCGCKPCICEVPEVDFVFIFPPKPKDVLTITLTPKVTCVVVDISKDDPEVQFSWFVDDVEVHTAQTQPREEQFNSTFRSVSELPIMHQDWLNGKEFKCRVNSAAFPAPIEKTISKTKGRPKAPQVYTIPPPKEQMAKDKVSLTCMITDFFPEDITVEWQWNGQPAENYKNTQPIMDTDGSYFVYSKLNVQKSNWEAGNTFTCSVLHEGLHNHHTEKSLSHSPGK
light: not shown
notes: copies: 2 + 2
With B1 the “relative mFcγRII-binding activity (mIgG1 = 1)” value [1] was 0.12 fold and the “relative mFcγRIII-binding activity (mIgG1 = 1)” value [2] was 0.06 fold.

B2: H237-MB611/MRAL-k0 (antibody, mouse IgG1, kappa)
heavy: QVQLQESGPGLVKPSETLSLTCAVSGHSISHDHAWSWVRQPPGEGLEWIGFISYSGITNYNPSLQGRVTISRDNSKNTLYLQMNSLRAEDTAVYYCARSLARTTAMDYWGEGTLVTVSSAKTTPPSVYPLAPGSAAQTNSMVTLGCLVKGYFPEPVTVTWNSGSLSSGVHTFPAVLQSDLYTLSSSVTVPSSTWPSETVTCNVAHPASSTKVDKKIVPRDCGCKPCICTVPEEDEVFIFPPKPKDVLTITLTPKVTCVVVDISKDDPEVQFSWFVDDVEVHTAQTQPREEQFNSTFRSVSELPIMHQDWLNGKEFKCRVNSAAFPAPIEKTISKTKGRPKAPQVYTIPPPKEQMAKDKVSLTCMITDFFPEDITVEWQWNGQPAENYKNTQPIMDTDGSYFVYSKLNVQKSNWEAGNTFTCSVLHEGLHNHHTEKSLSHSPGK
light: not shown
notes: copies: 2 + 2
B2 was tested, and the “relative mFcγRII-binding activity (mIgG1 = 1)” value [1] was 1.11 fold and the “relative mFcγRIII-binding activity (mIgG1 = 1)” value [2] was 0.09 fold.

B3: H237-MB609/MRAL-k0 (antibody, mouse IgG1, kappa)
heavy: QVQLQESGPGLVKPSETLSLTCAVSGHSISHDHAWSWVRQPPGEGLEWIGFISYSGITNYNPSLQGRVTISRDNSKNTLYLQMNSLRAEDTAVYYCARSLARTTAMDYWGEGTLVTVSSAKTTPPSVYPLAPGSAAQTNSMVTLGCLVKGYFPEPVTVTWNSGSLSSGVHTFPAVLQSDLYTLSSSVTVPSSTWPSETVTCNVAHPASSTKVDKKIVPRDCGCKPCICTVPEVEEVFIFPPKPKDVLTITLTPKVTCVVVDIMKDDPEVQFSWFVDDVEVHTAQTQPREEQFNSTFRSVSELPIMHQDWLNGKEFKCRVNSAAFPAPIEKTISKTKGRPKAPQVYTIPPPKEQMAKDKVSLTCMITDFFPEDITVEWQWNGQPAENYKNTQPIMDTDGSYFVYSKLNVQKSNWEAGNTFTCSVLHEGLHNHHTEKSLSHSPGK
light: not shown
notes: copies: 2 + 2
B3 was tested, and the “relative mFcγRII-binding activity (mIgG1 = 1)” value [1] was 2.66 fold and the “relative mFcγRIII-binding activity (mIgG1 = 1)” value [2] was 0.32 fold.

B4: H237-MB607/MRAL-k0 (antibody, mouse IgG1, kappa)
heavy: QVQLQESGPGLVKPSETLSLTCAVSGHSISHDHAWSWVRQPPGEGLEWIGFISYSGITNYNPSLQGRVTISRDNSKNTLYLQMNSLRAEDTAVYYCARSLARTTAMDYWGEGTLVTVSSAKTTPPSVYPLAPGSAAQTNSMVTLGCLVKGYFPEPVTVTWNSGSLSSGVHTFPAVLQSDLYTLSSSVTVPSSTWPSETVTCNVAHPASSTKVDKKIVPRDCGCKPCICTVPEEEEVFIFPPKPKDVLTITLTPKVTCVVVDISKDDPEVQFSWFVDDVEVHTAQTQPREEQFNSTFRSVSELPIMHQDWLNGKEFKCRVNSAAFPAPIEKTISKTKGRPKAPQVYTIPPPKEQMAKDKVSLTCMITDFFPEDITVEWQWNGQPAENYKNTQPIMDTDGSYFVYSKLNVQKSNWEAGNTFTCSVLHEGLHNHHTEKSLSHSPGK
light: not shown
notes: copies: 2 + 2
B4 was tested, and the “relative mFcγRII-binding activity (mIgG1 = 1)” value [1] was 3.14 fold and the “relative mFcγRIII-binding activity (mIgG1 = 1)” value [2] was 0.18 fold.

B5: H237-MB605/MRAL-k0 (antibody, mouse IgG1, kappa)
heavy: QVQLQESGPGLVKPSETLSLTCAVSGHSISHDHAWSWVRQPPGEGLEWIGFISYSGITNYNPSLQGRVTISRDNSKNTLYLQMNSLRAEDTAVYYCARSLARTTAMDYWGEGTLVTVSSAKTTPPSVYPLAPGSAAQTNSMVTLGCLVKGYFPEPVTVTWNSGSLSSGVHTFPAVLQSDLYTLSSSVTVPSSTWPSETVTCNVAHPASSTKVDKKIVPRDCGCKPCICEVPEVDSVDIFPPKPKDVLTITLTPKVTCVVVDISKDDPEVQFSWFVDDVEVHTAQTQPREEQFNSTFRSVSELPIMHQDWLNGKEFKCRVNSAAFPAPIEKTISKTKGRPKAPQVYTIPPPKEQMAKDKVSLTCMITDFFPEDITVEWQWNGQPAENYKNTQPIMDTDGSYFVYSKLNVQKSNWEAGNTFTCSVLHEGLHNHHTEKSLSHSPGK
light: not shown
notes: copies: 2 + 2
B5 was tested, and the “relative mFcγRII-binding activity (mIgG1 = 1)” value [1] was 9.85 fold and the “relative mFcγRIII-binding activity (mIgG1 = 1)” value [2] was 4.4 fold.

B6: H237-MB612/MRAL-k0 (antibody, mouse IgG1, kappa)
heavy: QVQLQESGPGLVKPSETLSLTCAVSGHSISHDHAWSWVRQPPGEGLEWIGFISYSGITNYNPSLQGRVTISRDNSKNTLYLQMNSLRAEDTAVYYCARSLARTTAMDYWGEGTLVTVSSAKTTPPSVYPLAPGSAAQTNSMVTLGCLVKGYFPEPVTVTWNSGSLSSGVHTFPAVLQSDLYTLSSSVTVPSSTWPSETVTCNVAHPASSTKVDKKIVPRDCGCKPCICTVPEVDEVDIFPPKPKDVLTITLTPKVTCVVVDISKDDPEVQFSWFVDDVEVHTAQTQPREEQFNSTFRSVSELPIMHQDWLNGKEFKCRVNSAAFPAPIEKTISKTKGRPKAPQVYTIPPPKEQMAKDKVSLTCMITDFFPEDITVEWQWNGQPAENYKNTQPIMDTDGSYFVYSKLNVQKSNWEAGNTFTCSVLHEGLHNHHTEKSLSHSPGK
light: not shown
notes: copies: 2 + 2
For B6, the “relative mFcγRII-binding activity (mIgG1 = 1)” value [1] was 0.81 fold and the “relative mFcγRIII-binding activity (mIgG1 = 1)” value [2] was 0.3 fold.

B7: H237-MB608/MRAL-k0 (antibody, mouse IgG1, kappa)
heavy: QVQLQESGPGLVKPSETLSLTCAVSGHSISHDHAWSWVRQPPGEGLEWIGFISYSGITNYNPSLQGRVTISRDNSKNTLYLQMNSLRAEDTAVYYCARSLARTTAMDYWGEGTLVTVSSAKTTPPSVYPLAPGSAAQTNSMVTLGCLVKGYFPEPVTVTWNSGSLSSGVHTFPAVLQSDLYTLSSSVTVPSSTWPSETVTCNVAHPASSTKVDKKIVPRDCGCKPCICTVPEVEEVDIFPPKPKDVLTITLTPKVTCVVVDISKDDPEVQFSWFVDDVEVHTAQTQPREEQFNSTFRSVSELPIMHQDWLNGKEFKCRVNSAAFPAPIEKTISKTKGRPKAPQVYTIPPPKEQMAKDKVSLTCMITDFFPEDITVEWQWNGQPAENYKNTQPIMDTDGSYFVYSKLNVQKSNWEAGNTFTCSVLHEGLHNHHTEKSLSHSPGK
light: not shown
notes: copies: 2 + 2
For B7, the “relative mFcγRII-binding activity (mIgG1 = 1)” value [1] was 0.42 fold and the “relative mFcγRIII-binding activity (mIgG1 = 1)” value [2] was 0.13 fold.

B8: H237-MB604/MRAL-k0 (antibody, mouse IgG1, kappa)
heavy: QVQLQESGPGLVKPSETLSLTCAVSGHSISHDHAWSWVRQPPGEGLEWIGFISYSGITNYNPSLQGRVTISRDNSKNTLYLQMNSLRAEDTAVYYCARSLARTTAMDYWGEGTLVTVSSAKTTPPSVYPLAPGSAAQTNSMVTLGCLVKGYFPEPVTVTWNSGSLSSGVHTFPAVLQSDLYTLSSSVTVPSSTWPSETVTCNVAHPASSTKVDKKIVPRDCGCKPCICEVPEVDWVFIFPPKPKDVLTITLTPKVTCVVVDISKDDPEVQFSWFVDDVEVHTAQTQPREEQFNSTFRSVSELPIMHQDWLNGKEFKCRVNSAAFPAPIEKTISKTKGRPKAPQVYTIPPPKEQMAKDKVSLTCMITDFFPEDITVEWQWNGQPAENYKNTQPIMDTDGSYFVYSKLNVQKSNWEAGNTFTCSVLHEGLHNHHTEKSLSHSPGK
light: not shown
notes: copies: 2 + 2
In the case of B8, the “relative mFcγRII-binding activity (mIgG1 = 1)” value [1] is reported as 0.34 fold and the “relative mFcγRIII-binding activity (mIgG1 = 1)” value [2] is reported as 0.16 fold.
